Laboratory results as given in PMC12732646, “Peroxisome Proliferator-Activated Receptor α/δ/γ Activation Profile by Endogenous Long-Chain Fatty Acids” (International Journal of Molecular Sciences, 2025).
Ends that are not written are not given here.

T1: Human PPARδ-LBD (amino acids 170–441) (human, UniProt Q03181 170-441)
T1 sequence (looked up): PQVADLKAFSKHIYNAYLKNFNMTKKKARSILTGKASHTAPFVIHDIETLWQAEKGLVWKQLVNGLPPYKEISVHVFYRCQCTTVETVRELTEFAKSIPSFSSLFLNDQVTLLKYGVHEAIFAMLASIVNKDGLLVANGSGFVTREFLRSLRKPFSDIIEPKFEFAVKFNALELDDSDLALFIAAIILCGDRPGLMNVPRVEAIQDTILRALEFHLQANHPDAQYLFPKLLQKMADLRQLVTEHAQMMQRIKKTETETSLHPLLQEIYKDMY

T2: Human PPARα-LBD (amino acids 200–468) (human, UniProt Q07869 200-468)
T2 construct: source: delipidized with ethanol
T2 sequence (looked up): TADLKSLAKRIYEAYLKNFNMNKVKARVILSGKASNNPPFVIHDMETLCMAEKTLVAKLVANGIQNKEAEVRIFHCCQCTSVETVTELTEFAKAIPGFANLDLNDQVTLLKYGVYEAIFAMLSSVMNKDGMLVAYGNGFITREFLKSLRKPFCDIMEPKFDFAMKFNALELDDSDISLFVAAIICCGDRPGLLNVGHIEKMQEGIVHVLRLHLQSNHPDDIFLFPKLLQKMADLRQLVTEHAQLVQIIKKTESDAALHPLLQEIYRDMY

T3: Human PPARγ-LBD (isoform 1; amino acids 203–477) (human, UniProt P37231-2 203-477)
T3 construct: numbers count on: isoform 1
T3 sequence (looked up): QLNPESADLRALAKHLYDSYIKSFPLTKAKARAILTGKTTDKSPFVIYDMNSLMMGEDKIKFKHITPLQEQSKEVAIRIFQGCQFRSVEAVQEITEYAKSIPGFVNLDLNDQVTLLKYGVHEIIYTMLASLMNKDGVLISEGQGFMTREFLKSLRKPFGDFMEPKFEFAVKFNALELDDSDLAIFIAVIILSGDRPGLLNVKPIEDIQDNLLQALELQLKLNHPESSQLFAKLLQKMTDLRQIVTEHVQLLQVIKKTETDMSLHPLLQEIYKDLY


Assays:
Conditions in all cases: both partners purified
[1] = biological target: T1, Human PPARδ-LBD (amino acids 170–441); experiment: FRET or BRET; same cell-free TR-FRET coactivator recruitment; with approved drug (pemafibrate for PPARα, seladelpar for PPARδ, pioglitazone for PPARγ), concentration series; response as percent of the maximal response with 1 µM GW full agonist
[2] = biological target: T2, Human PPARα-LBD (amino acids 200–468); experiment: as above
[3] = biological target: T3, Human PPARγ-LBD (isoform 1; amino acids …); experiment: FRET or BRET; cell-free TR-FRET coactivator recruitment; 6×His-LBD (9.5 µL of 400 nM) with Eu-W1024 anti-6×His antibody, biotin-labeled peptide (5 µL of 1 µM) with ULight-streptavidin; Buffer A (20 mM HEPES-NaOH pH 7.4, 150 mM NaCl, 1 mM EDTA, 0.005% Tween 20, 0.2% FA-free BSA); room temperature, 2 h; with synthetic full agonist (GW7647 for PPARα, GW501516 for PPARδ, GW1929 for PPARγ), concentration series; 665/620 …
[4] = biological target: T3, Human PPARγ-LBD (isoform 1; amino acids …); experiment: FRET or BRET; same cell-free TR-FRET coactivator recruitment; with approved drug (pemafibrate for PPARα, seladelpar for PPARδ, pioglitazone for PPARγ), concentration series; response as percent of the maximal response with 1 µM GW full agonist

binding result [1] | binding result [2] | binding result [3] | binding result [4] | Binder
binds | binds | – | – | CPSSHSSLTERHKILHRLLQEGSPS (also: biotin-labeled, position not given here, source: synthetic peptide (GenScript)) [SRC1 coactivator peptide, AAs 676–700]
binds | – | – | – | EAEEPSLLKKLLLAPANTQ (also: biotin-labeled, position not given here, source: synthetic peptide (GenScript)) [PGC1α coactivator peptide, AAs 137–155]
binds | binds | binds | – | PVSSMAGNTKNHPMLMNLLKDNPAQ (also: biotin-labeled, position not given here, Thyroid hormone receptor-associated protein 220, amino acids 631-655, holds an LXXLL motif (LMNLL); also called thyroid hormone receptor-associated protein 220 peptide; source: synthetic peptide (GenScript)) [TRAP220 coactivator peptide, AAs 631–655]
binds | binds | – | binds | SGNLVPDAASKHKQLSELLRGGSGS (also: biotin-labeled, position not given here, source: synthetic peptide (GenScript)) [CBP coactivator peptide, AAs 56–80]
